Assay results reported in the supplement of paper PMC12042874.
± gives the uncertainty stated by the source.

Experiment: amyloid nucleation score (Sup35N fusion, yeast selection) (log enrichment); library NNK1; higher = more nucleation; inactive = no reads after selection
Summary of the method: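 On medium lacking adenine and uracil, psi-negative yeast expressing peptides of 20 random codons fused to Sup35N were grown 7 days at 30°C after a 24-hour induction with 100 μM copper sulfate. Illumina sequencing of input and output plasmid inserts gave the reads, and sequences under 100 input reads were excluded. The nucleation score is the DiMSum log enrichment of output over input reads, centred on the mode score of non-aggregating sequences.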

Substance	amyloid nucleation score
FRMGFISYQTQTLTSRVFSF	2.73 ± 0.19
FRSFGVR	0.924 ± 0.97
FRSLFYVFHYLECFYL	3.52 ± 0.12
FRTSVDNLIGSENRISLRTS	0.541 ± 0.68
FRTYIFP	-0.091 ± 0.51
FRVMDRVGSCLIVELTPG	0.084 ± 0.55
FRVMNRGAFYMRFKLG	1.04 ± 0.67
FRVNCVAWDASGTYTYGR	0.525 ± 0.4
FRVYVSCVLCNDCVVYHRFE	7.602 ± 0.072
FRYSSDWWSYS	-0.834 ± 1.4
FSADVIFPCISSTLQKPPWW	-0.081 ± 0.54
FSALYPGREISA	1.51 ± 0.84
FSDCCLSAKRA	-0.46 ± 0.73
FSDFN	-0.3 ± 0.42
FSEVSNWVFLNIYYVAFF	0.934 ± 0.25
FSGVMLPVLIISRF	inactive
FSHLFHQY	2.13 ± 0.57
FSKQTPVASEG	inactive
FSLRLRDSWWAHSGRLYAYK	-0.428 ± 0.56
FSSIIG	-0.528 ± 0.4
FSTMAYTWVLYTSWACAGAS	0.075 ± 0.69
FSTVILSAYSAFSFGIYLLS	1.46 ± 0.33
FSWCGWQRRSSVVAGSRILW	-0.118 ± 1.1
FSYYVKGDGKERVGWMASIM	-0.94 ± 0.94
FTDTICCIVMQFKPKRSGSS	4.87 ± 0.088

Substance	amyloid nucleation score
FTFNYIATVSQLPGFGVIHS	0.343 ± 0.7
FTGCGLSPMGT	1.05 ± 0.73
FTGRNSNMIFLSYWVCYYQN	6.983 ± 0.05
FTNPRINMSRFSLSFCPARY	2.1 ± 0.25
FTSLWDCALTHVVTFPAILG	-1.36 ± 1.8
FTVARYKGIYNFSQGRCA	-0.33 ± 1.2
FTVVISSLNEGEEHRVWCKF	-0.444 ± 1.2
FTWERSH	0.655 ± 0.68
FTWWHIRGCGCCVACEGHRS	0.05 ± 0.65
FVADGLAPFLPMTVPLVGIK	-1.06 ± 2.4
FVCYSLNSSSFMIPYWILLK	-0.293 ± 0.46
FVFFSLGHLAFFARDRYSPW	2.38 ± 0.094
FVGRCLNMKTCRRCLLSWDN	0.128 ± 1.6
FVIDV	-0.568 ± 0.98
FVLDNRKFYVCFVGYRFGLF	4.83 ± 0.051
FVLERTGIRLLCL	0.363 ± 0.38
FVLTYDLMLLQSGFNSRL	0.756 ± 0.87
FVLVMLNMQ	4.4 ± 0.093
FVMLFSCRST	0.38 ± 0.76
FVSIRCVKYASYISHSHGLV	inactive
FVSSSKLIGCLVRHQKMANR	0.258 ± 0.59
FVSYTSP	-0.079 ± 0.33
FVTDMAYNMMESGLHT	6.44 ± 0.044
FVTQAGRGMHR	0.682 ± 0.75
FVVGSRFMKIHVSGGDLGFF	-0.144 ± 0.39

Substance	amyloid nucleation score
FVVSDIMGDLRKM	1.38 ± 0.71
FVVSDTGKVKWGMAQ	2.68 ± 0.14
FVYCNAAIAISSFGTWEPKG	2.9 ± 0.1
FWATRVTWLDEMLIYYCLVN	0.155 ± 0.36
FWISRYVLQKDWKGWICTEL	-0.338 ± 0.83
FWLILFIVFIKYMNILFRTC	1.08 ± 0.27
FWPGFSWSIKLQLTFG	-0.326 ± 0.3
FWQIAGRGFGRYG	-0.258 ± 0.45
FWTAPKLARDMSVLVTVFFY	-1.4 ± 2.1
FWTKSGSEEIITMVSTVRWR	-0.749 ± 1.1
FWWIGYKTSSDGPRAVAIWC	-0.137 ± 0.26
FYAVVEQIKFMRSLNLNLLN	-0.08 ± 0.36
FYDPALMSITNSD	1.73 ± 0.15
FYGCNSRA	-0.037 ± 0.97
FYLRSSTNEPRENNVNLALY	-0.345 ± 1.7
FYPFLQR	1.48 ± 0.63
FYQTS	0.634 ± 0.4
FYRASKDCLAKVRRVGC	0.482 ± 0.59
FYRSLVVNM	-0.081 ± 0.96
FYSNWRYDGYWDDLGMNIIV	-0.372 ± 0.4
FYTVSCLVCLGL	8.507 ± 0.047
FYVRCREMSRGVWWSTSVR	-0.188 ± 0.34
GACYNSGCCFNPLDWYK	0.904 ± 0.57
GAFNQSMDSCGFMFPHNMRP	0.724 ± 1
GAIFYGVCCIRPNWNVVSTS	5.69 ± 0.059

Substance	amyloid nucleation score
GALCCLCRSNHYVLQCGVKC	1.47 ± 0.7
GALGWWSSFVCEEAGKLTLR	0.792 ± 0.48
GASFVGTGKWVLTGWKTRRF	0.124 ± 0.97
GAYYGRSSKELGNNEGTGTG	0.51 ± 0.52
GCAQRKVAPWNRGLRQ	-0.501 ± 0.62
GCFEFVCEVAVGVSLDYSYL	-0.085 ± 0.28
GCILHFHSGRGYIGSRMVGW	1.31 ± 0.32
GCKSGDGQRVGVLLNQNCTR	0.863 ± 0.56
GCLKTVGCA	-0.22 ± 0.64
GCNMII	-0.34 ± 0.38
GCQLLYAKHIQSIMSQRPKN	0.374 ± 0.65
GCRPG	-0.151 ± 0.59
GCSLWVGVLCKNCFFDDLIM	5.807 ± 0.055
GCSVAASSESNNRSQQVGLT	1.02 ± 0.84
GCVSVPYQLPPLISYGLVN	-0.123 ± 0.62
GDISYVSASLQLFNWVLSCV	3.97 ± 0.13
GDLRSSILRLPTWRLWWITT	0.174 ± 0.29
GDRVAEFQFPLSYTRPELSL	0.046 ± 0.72
GDSLTLTLFRIIYIGFRTDY	-1.03 ± 0.44
GEDGG	0.148 ± 0.52
GEFTRGDTSKWFLLDK	0.577 ± 0.56
GELTIYCSVVPYVVSR	0.415 ± 0.44
GETRGVPPNFFTPIIQLSSA	inactive
GEYLRLSIWGLDKDNKGVQ	-0.073 ± 0.42
GFFLVLYHCFYWISRVR	0.737 ± 0.58

Substance	amyloid nucleation score
GFGAQPWRARSMFYK	0.566 ± 0.67
GFHEIMLYYSYIKVLVIDSH	0.387 ± 0.75
GFLCQSRVLAML	inactive
GFPLQSKDTARNIGTQFLEW	-0.003 ± 0.4
GFRFEMSRQIHKWQSSCLLY	0.489 ± 0.6
GFSANGLPCGAEAGEVFYTV	-0.725 ± 0.81
GFSRYSPRSKFFNSLVLKSS	-0.171 ± 1.1
GFSWSNITKCGWACGSDGMK	0.676 ± 0.45
GFTFVLLLSLGLVGWCETVK	-0.511 ± 0.68
GFYGRL	-0.774 ± 0.74
GFYLRYYLGISVRHYNHVIW	1.19 ± 0.72
GFYPHANLTMFRALNKCGEV	0.501 ± 0.53
GFYSLHTALARIPHEHAVFF	-0.018 ± 0.61
GGECYLLEYLSMSGVYCFRI	-1.25 ± 1.4
GGFFKRL	0.161 ± 0.36
GGLGVDATGYHVSTEGEELE	-0.275 ± 0.43
GGLILYKKNREFSSLQFSCV	-0.523 ± 0.46
GGQITYPMDLKVGRLCEDAL	inactive
GGSRTIVP	0.411 ± 0.48
GGTCVRQFMVLDTHSHADEC	0.66 ± 0.56
GGYGCDGCLSNCMRLNGVWV	inactive
GGYVIF	0.212 ± 0.56
GHDVWKANSLTRVKLREYYG	0.546 ± 0.35
GHHVRLLFLCVHTISYMESR	0.582 ± 0.9
GHRVAGCFSMSGVG	1.25 ± 0.44

Substance	amyloid nucleation score
GHTLRDVWASVEVRSNVDLD	0.54 ± 0.82
GHYRFVSFRFSWAEGAQLRG	1.68 ± 0.25
GICCYNFGRCKMRASPGLCG	-0.999 ± 1.3
GIFDLLYWLRELSLRKA	1.14 ± 0.39
GIGFFRCCLYRMFRYTRLSH	0.365 ± 0.23
GIIFGMKVGWK	0.385 ± 0.31
GILKCAYKT	0.664 ± 0.66
GIPYSVDGYVLVDVSITTIA	inactive
GISNSMVRHYLCTTFIYKDA	3.51 ± 0.066
GIVHAPCDFHTSSFWW	-0.147 ± 0.84
GIWVGHESVVIIVDMLYMLL	5.493 ± 0.046
GKCLIMKQRLALKSFFNFQC	inactive
GKEYYAIPMKNDGIARVNLR	0.875 ± 0.28
GKFVFWWVRSVYDQMAVPGM	-0.546 ± 1.1
GKLSSLLMFCRNSLFVGFLG	-0.086 ± 0.35
GKSTCFSMKQECLAEREEEG	0.257 ± 0.81
GKYKI	-0.476 ± 0.63
GLAASHSTSCSSYMISCWSR	-0.055 ± 0.55
GLCGVILCELISNVREGKSK	4.97 ± 0.084
GLCTTCF	0.126 ± 0.64
GLECD	0.469 ± 0.43
GLHREATSYLNRLFRINSG	-0.48 ± 0.56
GLKLKIREYSAFLCR	-0.027 ± 0.36
GLLFVKGTVDRQAWSGFEAH	-0.796 ± 1.2
GLLNR	0.435 ± 0.19

Substance	amyloid nucleation score
GLLTMIPKDYNCRISYLVHT	0.015 ± 0.64
GLQKSVEGNYMTFLSFSLAM	5.03 ± 0.052
GLVFTLWSASRCFFLRKKLW	-0.083 ± 0.83
GLVHEAHLDANKFFH	-0.139 ± 0.71
GLVHYMLLDPLAVNLSGCND	-0.301 ± 0.3
GLVNFTVVLTFV	2.82 ± 0.3
GLVSRIAGLIHEIDGRFWMQ	inactive
GLWIRFIAVTSSSVEIRANS	-0.776 ± 0.62
GLYPKYNVGLNN	-0.376 ± 0.56
GMARHEMRGGMHSTLLRLTA	0.735 ± 0.91
GMDTGNITAQSMAGLPRRAS	-0.299 ± 0.49
GMDTYLMETLCSTVNLRCHA	-0.604 ± 1
GMFNLLH	inactive
GMSGGWPIYKLGSS	1.05 ± 0.25
GMSSRMPQLNSWEPRGGDSG	-0.144 ± 0.83
GMSVNVWMYSSLGVFCLIYV	-0.107 ± 0.2
GMVLEWWIFMFGVPFSSDRA	-0.122 ± 0.74
GNCGET	0.311 ± 0.41
GNCKGKRPSRGGRCSGQ	1.2 ± 0.58
GNDGENLMSWTIVWNFIVG	4.33 ± 0.062
GNDIEAIKHSGLLLSSWTMG	-0.253 ± 1.2
GNFGWHSLSYRDNYICSWAL	4.43 ± 0.068
